{"source": "patent US8003599", "proteins": {"B1": {"name": "human ADAM10 (membrane-bound metalloproteinase) (protein)", "chain": "TTSAEKNTCQLYIQTDHLFFKYYGTREAVIAQISSHVKAIDTIYQTTDFSGIRNISFMVKRIRINTTADEKDPTNPFRFPNIGVEKFLELNSEQNHDDYCLAYVFTDRDFDDGVLGLAWVGAPSGSSGGICEKSKLYSDGKKKSLNTGIITVQNYGSHVPPKVSHITFAHEVGHNFGSPHDSGTECTPGESKNLGQKENGNYIMYARATSGDKLNNNKFSLCSIRNISQVLEKKRNNCFVESGQPICGNGMVEQGEECDCGYSDQCKDECCFDANQPEGRKCKLKPGKQCSPSQGPCCTAQCAFKSKSEKCRDDSDCAREGICNGFTALCPASDPKPNFTDCNRHTQVCINGQCAGSICEKYGLEECTCASSDGKDDKELCHVCCMKKMDPSTCASTGSVQWSRHFSGRTITLQPGSPCNDFRGYCDVFMRCRLVDADGPLARLKKAIFSPELYENIAEWIVAHWWAVLLMGIALIMLMAGFIKICSVHTPSSNPKLPPPKPLPGTLKRRRPPQPIQQPQRQRPRESYQMGHMRR"}}, "target": "human L1 adhesion molecule (L1-CAM), wild type, on cells", "sequence (chain, as listed by the source)": "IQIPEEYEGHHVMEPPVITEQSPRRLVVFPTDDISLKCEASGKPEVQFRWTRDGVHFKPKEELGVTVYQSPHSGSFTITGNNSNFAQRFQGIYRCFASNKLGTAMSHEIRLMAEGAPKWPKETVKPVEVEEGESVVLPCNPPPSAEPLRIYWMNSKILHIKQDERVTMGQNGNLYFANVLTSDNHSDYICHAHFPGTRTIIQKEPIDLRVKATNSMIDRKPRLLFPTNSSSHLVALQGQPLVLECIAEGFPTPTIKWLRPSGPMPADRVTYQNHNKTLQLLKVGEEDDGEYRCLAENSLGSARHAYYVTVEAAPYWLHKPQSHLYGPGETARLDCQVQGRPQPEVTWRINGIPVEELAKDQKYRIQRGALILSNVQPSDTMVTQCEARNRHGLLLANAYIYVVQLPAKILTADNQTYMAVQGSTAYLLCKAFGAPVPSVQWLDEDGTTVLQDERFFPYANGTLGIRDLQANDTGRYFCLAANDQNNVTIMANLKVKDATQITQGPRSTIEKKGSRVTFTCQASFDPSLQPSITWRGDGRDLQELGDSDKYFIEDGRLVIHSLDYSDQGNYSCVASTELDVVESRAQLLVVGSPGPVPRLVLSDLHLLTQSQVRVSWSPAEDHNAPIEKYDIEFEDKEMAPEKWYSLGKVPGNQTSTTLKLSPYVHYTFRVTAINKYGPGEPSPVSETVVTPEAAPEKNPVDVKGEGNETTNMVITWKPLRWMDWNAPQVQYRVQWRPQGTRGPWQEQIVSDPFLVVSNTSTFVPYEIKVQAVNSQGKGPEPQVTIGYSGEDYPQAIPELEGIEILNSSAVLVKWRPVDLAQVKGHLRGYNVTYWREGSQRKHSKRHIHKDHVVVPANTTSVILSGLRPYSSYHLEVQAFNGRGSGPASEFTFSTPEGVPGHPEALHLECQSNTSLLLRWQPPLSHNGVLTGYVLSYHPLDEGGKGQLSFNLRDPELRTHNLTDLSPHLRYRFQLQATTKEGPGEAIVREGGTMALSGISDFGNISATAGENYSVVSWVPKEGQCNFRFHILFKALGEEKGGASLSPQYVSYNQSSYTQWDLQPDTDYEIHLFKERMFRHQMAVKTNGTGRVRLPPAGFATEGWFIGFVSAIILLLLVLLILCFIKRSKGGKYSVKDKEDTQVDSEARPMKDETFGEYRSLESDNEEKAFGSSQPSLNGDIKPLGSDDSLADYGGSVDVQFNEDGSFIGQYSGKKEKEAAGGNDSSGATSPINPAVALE", "data": [{"protein": "B1", "values": [{"measurement": "L1 cleavage", "value": "L1 cleavage required the membrane-bound metalloproteinase ADAM10"}]}]}
